# Test results from patent US20080193426A1, “MIGRATION OF HEMATOPOIETIC STEM CELLS AND PROGENITOR CELLS TO THE LIVER” (YEDA RESEARCH AND DEVELOPMENT CO., LTD., priority 2001, published 2008).
# Molecular target: T1, CXCR4 (Homo sapiens, UniProt P61073)
# T1 construct: homing of human CD34+ enriched MPB cells to the liver of NOD/SCID mice; endogenous in cells; host or cells: CD34+ enriched mobilized peripheral blood cells, thawed and incubated overnight with SLF, transplanted into non-irradiated NOD/SCID mice
# T1 sequence (P61073 whole entry): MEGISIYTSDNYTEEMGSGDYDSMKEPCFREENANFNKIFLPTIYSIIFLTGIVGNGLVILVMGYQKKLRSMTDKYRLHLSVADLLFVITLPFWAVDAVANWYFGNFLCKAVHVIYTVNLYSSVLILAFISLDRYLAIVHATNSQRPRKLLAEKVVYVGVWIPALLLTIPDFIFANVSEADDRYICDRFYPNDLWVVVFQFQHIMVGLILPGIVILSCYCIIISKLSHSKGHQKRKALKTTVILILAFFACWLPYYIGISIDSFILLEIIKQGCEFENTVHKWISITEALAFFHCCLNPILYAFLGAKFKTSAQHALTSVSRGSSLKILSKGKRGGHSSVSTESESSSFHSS
# Assay: Homing of human CD34+ enriched MPB cells to the liver of non-irradiated NOD/SCID mice, SDF-1 injected into the liver
# Format: in vivo
# Conditions: for homing of human stem cells and progenitor cells to the liver (in words): SDF-1 injected into the liver
# Method: The following experiment was carried out in order to test whether homing of human CD34+ enriched MPB cells to the liver of NOD/SCID mice requires high concentrations of human SDF-1 in the liver.
# Frozen […] mobilized peripheral blood (MPB) CD34+ cells were thawed, and incubated at 37° C. over night with 50 ng/ml SLF for recovery. In contrast to the experiment described in example 1, this experiment was carried out with non irradiated mice (not pre-conditioned) and also in non-irradiated mice in which human SDF-1 has been injected directly into the liver immediately prior transplantation. Briefly, non-irradiated NOD/SCID mice were anaesthetized and 1 microgram SDF-1 (in 50 microliter PBS) were injected into the right lobe of the liver. Next, treated and control mice were transplanted intravenously with 8×10^5 CD34+ MPB enriched cells. In one group, CD34+ cells were incubated for 30 min. (4° C.) with 10 micrograms of neutralizing anti-human CXCR4 mAb (12G5), and co-transplanted without washing. Four hours later, the injected lobe was harvested, a single cell suspension was prepared and introduced to flow cytometry analysis, using human specific anti CD34-FITC and anti CD38-PE mAb. Injection of SDF-1 to the liver creates a positive gradient in the liver and a negative gradient in the blood. Since this gradient is maintained for about 4 hours only, therefore the mice were sacrificed and homing was tested rapidly, four hours after cell injection.
substance,measurement,setting,value
"SDF-1: human SDF-1, CXC chemokine and ligand of CXCR4, injected directly into the liver",Number of human cells in the liver per 1 × 10^6 total aquired cells,"1 microgram SDF-1 into right liver lobe, 8×10^5 CD34+ MPB cells IV, 12G5 10 micrograms, four hours, flow cytometry",38
same,"% (number of human cells in the liver, SDF-1 group = 100)","1 microgram SDF-1 into right liver lobe, four hours after cell injection",100%
same,homing of human stem cells and progenitor cells to the liver (in words),four hours after cell injection,improves significantly
same,homing of human stem cells and progenitor cells to the liver (in words),"four hours after cell injection, listed as human SDF-1",a considerable number of human stem cells and progenitor cells were observed
